Molecular target: growth hormone (GH) receptor (mouse) (UniProt P16882)
Experiment: cell-based or functional assay

Substance: recombinant rat growth hormone (from UniProt P01244 27-216) (ligand)
- GH receptor mRNA expression levels in the liver (quantitative RT-PCR), 60 minutes after 30 µg subcutaneous rGH (% of level prior to administration): 65
- IGF-I-BP3 mRNA expression levels in the liver (quantitative RT-PCR, % of control), 60 minutes after 30 µg subcutaneous rGH: 250 % increase
